Test results taken from the supplement of paper PMC7877785.
± gives the uncertainty stated by the source.

Assay: self-splicing fitness, log relative to wild type (ln ratio); higher = more splicing; Tetrahymena group I intron in knt gene, E. coli kanamycin selection, DiMSum; sequences stand for … in CUCUCU…GGAGGGAAAAGUUAUCAGGCAUGCACCUGGUAGCUAGUCUUUAAACCAAUAGAUUGCAUCGGUUUAAAAGGCAAGACCGUCAAAUUGCGGGAAAGGGGUCAACAGCCGUUCAGUACCAAGUCUCAGGGGAAACUUUGAGAUGGCCUUGCAAAGGGUAUGGUAAUAAGCUGACGGACAUGGUCCUAACCACGCAGCCAAGUCCUAAGUCAACAGAUCUUCUGUUGAUAUGGAUGCAGUUCACAGACUAAAUGUCGGUCGGGGAAGAUGUAUUCUUCUCAUAAGAUAUAGUCGGACCUCUCCUUAAUGGGAGCUAGCGGAUGAAGUGAUGCAACACUGGAGCCGCUGGGAACUAAUUUGUAUGCGAAAGUAUAUUGAUUAGUUUUGGAGUACUCGUGGUCG
Summary of the method: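 Pooled colonies went to amplicon sequencing on an Illumina HiSeq 2500 after six replicate transformations. The plates were LB agar with 100 μg/mL carbenicillin, 50 μM IPTG and 0.2% rhamnose, with or without 25 μg/mL kanamycin, incubated overnight at 37°C or 30°C. The E. coli BL21(DE3) library had all eight P1ex-region intron nucleotides randomised, the intron placed in the knt kanamycin-resistance gene on pET-22b(+). DiMSum fitness is the error-weighted combination of replicate fold changes, kanamycin against none, normalised to wild type.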

Sequence | self-splicing fitness (ln) (30 °C) | self-splicing fitness (ln) (37 °C)
UUCUAGCAAUAUUACGGUUU | -2.05 ± 0.11 | -1.52 ± 0.12
GGUAAGCAAUAUUACGUUCA | -0.432 ± 0.081 | 0.0273 ± 0.12
UGGAAGCAAUAUUACGUUAA | -0.681 ± 0.36 | -0.67 ± 0.3
GUCAAGCAAUAUUACGUUAG | -4.36 ± 0.24 | -3.3 ± 0.23
GGCGAGCAAUAUUACGGAUG | -3.22 ± 0.19 | -1.7 ± 0.15
ACUUAGCAAUAUUACGCCUC | -2.19 ± 0.26 | -1.64 ± 0.3
UGACAGCAAUAUUACGAGCG | -0.264 ± 0.067 | -0.0667 ± 0.079
UCCAAGCAAUAUUACGCGUC | -3.21 ± 0.1 | -2.63 ± 0.11
AACAAGCAAUAUUACGUUCU | -2.01 ± 0.064 | -1.16 ± 0.094
UCACAGCAAUAUUACGUCCC | -4.32 ± 0.42 | -2.01 ± 0.45
CCGCAGCAAUAUUACGUGAU | -2.62 ± 0.15 | -2.31 ± 0.2
GGAAAGCAAUAUUACGUAGC | -2.63 ± 0.22 | -2.34 ± 0.23
UUCUAGCAAUAUUACGGUCU |  | -3.7 ± 0.36
UACCAGCAAUAUUACGUUCC | -2.79 ± 0.19 | -1.77 ± 0.22
GACGAGCAAUAUUACGAACA | -0.347 ± 0.3 | -1.44 ± 0.3
UGCAAGCAAUAUUACGGUCC | -1.81 ± 0.057 | -1.16 ± 0.084
ACGUAGCAAUAUUACGGCUC | -1.2 ± 0.12 | -0.844 ± 0.15
AGCCAGCAAUAUUACGCAUU | -1.65 ± 0.062 | -1.25 ± 0.075
CCGAAGCAAUAUUACGGGUA | -4.26 ± 0.3 | -2.35 ± 0.22
CUAGAGCAAUAUUACGGACG | 0.0877 ± 0.07 | 0.427 ± 0.097
AGCAAGCAAUAUUACGGGUG | -1.36 ± 0.056 | -0.789 ± 0.076
CCUGAGCAAUAUUACGAUCA | -3.05 ± 0.32 | -2.42 ± 0.24
CCACAGCAAUAUUACGGCAA | -2.92 ± 0.29 | -2.74 ± 0.32
CGGAAGCAAUAUUACGUAGU | -3.43 ± 0.14 | -1.97 ± 0.13

Sequence | self-splicing fitness (ln) (30 °C) | self-splicing fitness (ln) (37 °C)
UUCUAGCAAUAUUACGCAAU | -2.27 ± 0.22 | -2.21 ± 0.32
CAAAAGCAAUAUUACGAACA | -1.95 ± 0.14 | -0.613 ± 0.13
GGCCAGCAAUAUUACGCACG | -1.18 ± 0.07 | -0.36 ± 0.082
AUGCAGCAAUAUUACGACAC | -0.537 ± 0.077 | 0.312 ± 0.11
CUAGAGCAAUAUUACGAGAG | -0.641 ± 0.071 | -0.393 ± 0.099
AGCCAGCAAUAUUACGCUAC | -2.52 ± 0.18 | -0.749 ± 0.17
GAGUAGCAAUAUUACGGGGC | -2.79 ± 0.28 | -1.98 ± 0.33
AUCCAGCAAUAUUACGCGCA | -0.994 ± 0.067 | -0.169 ± 0.081
UUACAGCAAUAUUACGACGC | 0.421 ± 0.26 | -1.47 ± 0.36
CCCCAGCAAUAUUACGAACC | -4.18 ± 0.34 | -2.46 ± 0.36
AGUAAGCAAUAUUACGCAAU | -2.52 ± 0.14 | -1.17 ± 0.16
UACCAGCAAUAUUACGACUA | -0.413 ± 0.078 | 0.638 ± 0.098
GGGGAGCAAUAUUACGCCGG |  | -0.928 ± 0.42
UAUGAGCAAUAUUACGUAGG | -4.19 ± 0.34 | -2.41 ± 0.21
CGGAAGCAAUAUUACGGUGC | -3.17 ± 0.19 | -2.28 ± 0.19
UACGAGCAAUAUUACGUGUU | -3.63 ± 0.19 | -3.63 ± 0.29
GCUAAGCAAUAUUACGGGAA | -1.56 ± 0.12 | -1.16 ± 0.12
GGGUAGCAAUAUUACGAUGA | -0.862 ± 0.13 | -0.927 ± 0.14
CCUGAGCAAUAUUACGCCUC | -2.22 ± 0.29 | -1.88 ± 0.3
GACGAGCAAUAUUACGAGAG | -3.77 ± 0.34 | -0.809 ± 0.18
GCUCAGCAAUAUUACGCAUG | -1.66 ± 0.1 | -1.49 ± 0.1
ACGGAGCAAUAUUACGGGUA | -2.34 ± 0.25 | -3.02 ± 0.32
GAAUAGCAAUAUUACGAUAG | -0.707 ± 0.15 | -1.47 ± 0.22
GCUCAGCAAUAUUACGUAAG | -0.791 ± 0.043 | -0.374 ± 0.067

Sequence | self-splicing fitness (ln) (30 °C) | self-splicing fitness (ln) (37 °C)
GGCUAGCAAUAUUACGUCCC |  | -0.484 ± 0.43
AGUCAGCAAUAUUACGACAU | 0.0908 ± 0.012 | -0.0465 ± 0.032
CCCUAGCAAUAUUACGGCAG | -3.47 ± 0.22 | -2.75 ± 0.22
AGGAAGCAAUAUUACGAUAG | -3.02 ± 0.28 | -1.55 ± 0.38
GGAAAGCAAUAUUACGUCGU | -0.732 ± 0.093 | -0.254 ± 0.12
GUGAAGCAAUAUUACGGUCG | -0.124 ± 0.063 | -0.0595 ± 0.085
UGCCAGCAAUAUUACGGAAU | -2.74 ± 0.15 | -1.95 ± 0.11
CGCUAGCAAUAUUACGCGUA | -3.45 ± 0.37 | -1.45 ± 0.15
UCUCAGCAAUAUUACGCAAG | -4.47 ± 0.39 | -2.02 ± 0.2
CCCCAGCAAUAUUACGCCAA | -2.64 ± 0.17 | -2.7 ± 0.19
ACAUAGCAAUAUUACGUCCU | -0.372 ± 0.11 | -0.297 ± 0.12
CCUCAGCAAUAUUACGGCGG | -3.33 ± 0.15 | -3.35 ± 0.35
UUGGAGCAAUAUUACGUUAA | -2.09 ± 0.25 | -1.91 ± 0.25
GUUUAGCAAUAUUACGGAAU | -2.56 ± 0.31 | -1.26 ± 0.31
CUCUAGCAAUAUUACGGAUG | -1.32 ± 0.092 | -0.418 ± 0.13
UCGGAGCAAUAUUACGGUAA | -3.18 ± 0.21 | -1.68 ± 0.23
GAACAGCAAUAUUACGAAAC | -0.693 ± 0.1 | -0.301 ± 0.12
UUACAGCAAUAUUACGCAGA | -1.84 ± 0.14 | -0.823 ± 0.12
UUCCAGCAAUAUUACGUCCG | -2.28 ± 0.18 | 0.24 ± 0.2
GCCCAGCAAUAUUACGGACU | -2.51 ± 0.16 | -0.873 ± 0.21
GUGAAGCAAUAUUACGAGAG | -2.92 ± 0.11 | -1.7 ± 0.1
CUAAAGCAAUAUUACGGGUA | -4.44 ± 0.32 | -2.3 ± 0.3
UGCGAGCAAUAUUACGUUUU | -5.01 ± 0.45 | -3.25 ± 0.24
UAUAAGCAAUAUUACGGGUG | -0.65 ± 0.074 | 0.0941 ± 0.12

Sequence | self-splicing fitness (ln) (30 °C) | self-splicing fitness (ln) (37 °C)
CGUAAGCAAUAUUACGCACA | -1.37 ± 0.18 | -0.0497 ± 0.23
ACCUAGCAAUAUUACGCGGG | -3.58 ± 0.24 | 
ACUUAGCAAUAUUACGUAGU | -2.87 ± 0.11 | -2.73 ± 0.19
CAACAGCAAUAUUACGUAUA | -2.76 ± 0.12 | -1.55 ± 0.11
UAACAGCAAUAUUACGUGUG | -1.23 ± 0.042 | -0.692 ± 0.055
GUGAAGCAAUAUUACGGCGU | 0.663 ± 0.12 | 0.727 ± 0.15
AAAGAGCAAUAUUACGCCGG | -3.8 ± 0.42 | -2.53 ± 0.24
CCGCAGCAAUAUUACGUGCC | -3.67 ± 0.24 | -3.75 ± 0.3
UAUAAGCAAUAUUACGUAGG | -3 ± 0.27 | -0.609 ± 0.27
UCCCAGCAAUAUUACGCUCG | -2.99 ± 0.18 | -2.15 ± 0.29
GACCAGCAAUAUUACGGGUG | -1.85 ± 0.068 | -1.36 ± 0.072
AAUGAGCAAUAUUACGUGGA | -3.35 ± 0.32 | -3.04 ± 0.35
AGGGAGCAAUAUUACGUGUU | -2.63 ± 0.31 | -1.73 ± 0.29
GCUAAGCAAUAUUACGUACA | -1.38 ± 0.1 | -0.974 ± 0.13
CGUAAGCAAUAUUACGGCGC | -2.21 ± 0.26 | -2.2 ± 0.42
CACCAGCAAUAUUACGUCCA | -3.43 ± 0.26 | -2.26 ± 0.2
UAAUAGCAAUAUUACGUUGG | -3.11 ± 0.13 | -0.991 ± 0.11
CUAAAGCAAUAUUACGCUGC | -3.7 ± 0.47 | -2.53 ± 0.42
UAGAAGCAAUAUUACGUUAC | -3.73 ± 0.32 | -2.79 ± 0.27
GUCGAGCAAUAUUACGAGUC | -3.73 ± 0.25 | -2.2 ± 0.18
AAAUAGCAAUAUUACGGCCU | -0.218 ± 0.095 | 0.661 ± 0.17
GGACAGCAAUAUUACGUAGA | -0.242 ± 0.08 | -0.126 ± 0.091
GUCGAGCAAUAUUACGUGAU | -2.2 ± 0.15 | -2.11 ± 0.18
GUUAAGCAAUAUUACGCGGA | -0.996 ± 0.27 | -0.987 ± 0.2
